From PMC5225439, “Nucleoplasmin-like domain of FKBP39 from Drosophila melanogaster forms a tetramer with partly disordered tentacle-like C-terminal segments” (Scientific Reports, 2017)

Tests used:
[1] = target: the molecule itself; test: AUC; sedimentation velocity, 20 °C, buffer C (50 mM Na2HPO4, 150 mM NaCl, pH 7.0), 0.2 and 0.5 mg/ml protein, 40,000 rpm, absorbance at 280 nm, continuous c(s) distribution in SEDFIT
[2] = target: the molecule itself; test: SEC-MALS; 100 μl of 1 mg/ml FKBP39 on Superdex 200 Increase 10/300 in buffer C (50 mM Na2HPO4, 150 mM NaCl, pH 7.0), 0.5 ml/min

B1: 39-kDa FK506-binding protein (FKBP39) from Drosophila melanogaster, full-length, with C-terminal 8x His-tag (natural protein, UniProt P54397 1-357, looked up)
chain: MSMFWGLNMKPERKYSQTIIKSFHISGVALDKGQEAKLYLAAEKQEYIVATVTKAIPQVALDLNFSKGDRIMFYTAGDASVSLLGYLHDIDSEDDEDDDQMTIENLLNSKAIKNSKKSEDDEDENESGEEDEEDTDDDSQIIEEYESFLENGEEEDDDDVDEDNEESGEEDEQDSDDSEAEEEQPKAKVAKLSPGASAKKSGKEQNGVAKKEEAKQQQKKKEKPEAKKEQPKAKEPAKQQPASKDPRTITGGVKIVDQVVGKGEEAKQGKRVSVYYIGRLQSNNKTFDSLLKGKPFKFALGGGEVIKGWDVGVAGMKVGGKRVITCPPHMAYGARGAPPKIGPNSTLVFEVELKAVH
notes: N-terminal NPL 1-86, central charged region 87-256, C-terminal FKBD 257-357; Cloned BamHI/HindIII into the modified vector pQE80L-XH; The forward primer puts TCG (Ser) before the FKBP39 ATG, so a few vector-derived residues precede the natural start; also called full-length FKBP39; recombinant FKBP39; source: E. coli BL21(DE3)pLysS, purified (Co2+-TALON resin, Superdex 200 SEC)
stoichiometry N [1]: 4 | stoichiometry N [2]: 2
